Experiments:
GLA2 = target: T1, GLA2
T1 chain: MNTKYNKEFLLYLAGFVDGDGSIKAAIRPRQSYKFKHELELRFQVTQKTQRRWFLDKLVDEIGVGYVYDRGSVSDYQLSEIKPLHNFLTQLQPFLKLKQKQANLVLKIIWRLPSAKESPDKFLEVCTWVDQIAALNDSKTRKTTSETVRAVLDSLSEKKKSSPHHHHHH

MGC2 = target: T2, MGC2
T2 chain: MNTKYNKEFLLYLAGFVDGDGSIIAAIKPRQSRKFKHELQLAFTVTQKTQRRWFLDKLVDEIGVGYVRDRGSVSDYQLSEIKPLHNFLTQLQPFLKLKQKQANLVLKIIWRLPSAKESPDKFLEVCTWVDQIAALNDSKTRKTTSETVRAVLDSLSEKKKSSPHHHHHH

ACH2 = target: T3, ACH2
T3 chain: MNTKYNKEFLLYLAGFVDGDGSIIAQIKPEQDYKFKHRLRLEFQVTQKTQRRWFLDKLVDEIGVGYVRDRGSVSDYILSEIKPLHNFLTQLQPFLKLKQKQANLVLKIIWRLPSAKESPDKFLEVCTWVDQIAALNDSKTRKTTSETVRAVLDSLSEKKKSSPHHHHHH

CF2 = target: T4, CF2
T4 chain: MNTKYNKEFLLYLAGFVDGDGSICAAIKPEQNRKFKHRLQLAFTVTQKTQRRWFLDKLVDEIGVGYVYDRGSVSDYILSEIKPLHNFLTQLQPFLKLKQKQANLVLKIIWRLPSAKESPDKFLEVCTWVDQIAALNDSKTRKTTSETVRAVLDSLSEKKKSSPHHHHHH

CCR2 = target: T5, CCR2
T5 chain: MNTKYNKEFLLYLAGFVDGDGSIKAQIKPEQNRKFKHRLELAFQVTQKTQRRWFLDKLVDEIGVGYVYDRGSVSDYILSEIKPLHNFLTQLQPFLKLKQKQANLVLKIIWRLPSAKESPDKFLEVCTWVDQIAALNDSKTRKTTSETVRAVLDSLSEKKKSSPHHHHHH

[1] = target: T6, HGH2 (partner of CYP in the CYP/HGH2 heterodimer, the 44th table)
T6 chain: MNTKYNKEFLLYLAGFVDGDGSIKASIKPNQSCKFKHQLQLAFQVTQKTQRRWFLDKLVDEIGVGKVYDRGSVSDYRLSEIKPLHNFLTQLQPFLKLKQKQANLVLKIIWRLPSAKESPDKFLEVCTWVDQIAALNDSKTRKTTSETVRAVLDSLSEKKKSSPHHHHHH

LAM2 = target: T7, LAM2
T7 chain: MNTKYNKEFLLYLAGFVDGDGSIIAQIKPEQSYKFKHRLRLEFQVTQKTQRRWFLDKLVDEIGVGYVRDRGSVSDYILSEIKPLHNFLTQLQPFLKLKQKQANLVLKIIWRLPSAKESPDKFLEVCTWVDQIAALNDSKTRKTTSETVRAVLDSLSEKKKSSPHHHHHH

MYD2 = target: T8, MYD2
T8 chain: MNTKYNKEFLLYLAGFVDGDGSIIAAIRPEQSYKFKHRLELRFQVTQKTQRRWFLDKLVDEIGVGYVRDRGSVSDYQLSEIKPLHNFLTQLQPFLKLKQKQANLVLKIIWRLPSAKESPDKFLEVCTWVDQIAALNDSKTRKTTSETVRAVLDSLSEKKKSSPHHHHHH

URA2 = target: T9, URA2
T9 chain: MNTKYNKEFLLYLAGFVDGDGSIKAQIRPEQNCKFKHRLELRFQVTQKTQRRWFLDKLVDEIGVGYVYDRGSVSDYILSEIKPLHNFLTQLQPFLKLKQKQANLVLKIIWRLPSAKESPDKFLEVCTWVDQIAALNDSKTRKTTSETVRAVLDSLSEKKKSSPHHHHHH

BRP2 = target: T10, BRP2
T10 chain: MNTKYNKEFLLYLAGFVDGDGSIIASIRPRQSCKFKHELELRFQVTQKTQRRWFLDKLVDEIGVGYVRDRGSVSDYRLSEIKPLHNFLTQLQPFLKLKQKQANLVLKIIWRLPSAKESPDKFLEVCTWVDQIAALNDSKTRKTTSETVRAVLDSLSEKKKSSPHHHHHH

[2] = target: T11, variant of LAM2 in which glutamic acids at positions 8 and 61 were changed to lysine
T11 chain: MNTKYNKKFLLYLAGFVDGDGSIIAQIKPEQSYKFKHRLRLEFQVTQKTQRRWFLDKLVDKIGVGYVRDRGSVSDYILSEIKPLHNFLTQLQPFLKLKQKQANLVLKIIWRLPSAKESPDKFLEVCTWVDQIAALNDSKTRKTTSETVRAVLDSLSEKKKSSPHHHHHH

HGH2 = target: T12, HGH2
T12 chain: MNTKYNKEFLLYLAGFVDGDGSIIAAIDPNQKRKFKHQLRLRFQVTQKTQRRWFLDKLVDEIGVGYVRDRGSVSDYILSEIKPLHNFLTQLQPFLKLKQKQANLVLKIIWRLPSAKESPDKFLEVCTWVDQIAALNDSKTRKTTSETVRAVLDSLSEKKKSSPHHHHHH

B1: GLA1 (protein)
chain: MNTKYNKEFLLYLAGFVDGDGSIKAAIKPRQSYKFKHELSLAFQVTQKTQRRWFLDKLVDEIGVGYVYDRGSVSDYQLCEIKPLHNFLTQLQPFLKLKQKQANLVLKIIWRLPSAKESPDKFLEVCTWVDQIAALNDSKTRKTTSETVRAVLDSLSEKKKSSPHHHHHH
With B1 the “cleavage of a linearized DNA substrate with the intended non-palindromic recognition sequence (SEQ ID NO: 32, Arabidopsis GL2 gene) by the 1:1 mixture” value (GLA2) was “each rationally-designed meganuclease heterodimer cleaves its intended DNA site”.

B2: MGC1 (protein)
chain: MNTKYNKEFLLYLAGFVDGDGSIKAQIKPNQCYKFKHQLQLAFQVTQKTQRRWFLDKLVDEIGVGYVYDRGSVSDYILSEIKPLHNFLTQLQPFLKLKQKQANLVLKIIWRLPSAKESPDKFLEVCTWVDQIAALNDSKTRKTTSETVRAVLDSLSEKKKSSPHHHHHH
In the case of B2, the “cleavage of a linearized DNA substrate with the intended non-palindromic recognition sequence (SEQ ID NO: 34, Nicotiana tabacum Magnesium Chelatase gene) by the 1:1 mixture” value (MGC2) is reported as “each rationally-designed meganuclease heterodimer cleaves its intended DNA site”.

B3: ACH1 (protein)
chain: MNTKYNKEFLLYLAGFVDGDGSIIAAIDPEQDCKFKHRLRLRFQVTQKTQRRWFLDKLVDEIGVGYVRDRGSVSDYQLSEIKPLHNFLTQLQPFLKLKQKQANLVLKIIWRLPSAKESPDKFLEVCTWVDQIAALNDSKTRKTTSETVRAVLDSLSEKKKSSPHHHHHH
With B3 the “cleavage of a linearized DNA substrate with the intended non-palindromic recognition sequence (SEQ ID NO: 23, human FGFR3 gene) by the 1:1 mixture” value (ACH2) was “each rationally-designed meganuclease heterodimer cleaves its intended DNA site”.

B4: CF1 (protein)
chain: MNTKYNKEFLLYLAGFVDGDGSICAQIKPNQSYKFKHQLQLAFQVTQKTQRRWFLDKLVDEIGVGYVHDRGSVSDYILSEIKPLHNFLTQLQPFLKLKQKQANLVLKIIWRLPSAKESPDKFLEVCTWVDQIAALNDSKTRKTTSETVRAVLDSLSEKKKSSPHHHHHH
With B4 the “cleavage of a linearized DNA substrate with the intended non-palindromic recognition sequence (SEQ ID NO: 25, human CFTR deltaF508 allele) by the 1:1 mixture” value (CF2) was “each rationally-designed meganuclease heterodimer cleaves its intended DNA site”.

B5: CCR1 (protein)
chain: MNTKYNKEFLLYLAGFVDGDGSIKAQIRPRQNYKFKHELELEFQVTQKTQRRWFLDKLVDEIGVGYVYDRGSVSDYILSEIKPLHNFLTQLQPFLKLKQKQANLVLKIIWRLPSAKESPDKFLEVCTWVDQIAALNDSKTRKTTSETVRAVLDSLSEKKKSSPHHHHHH
In the case of B5, the “cleavage of a linearized DNA substrate with the intended non-palindromic recognition sequence (SEQ ID NO: 26, human CCR5 gene) by the 1:1 mixture” value (CCR2) is reported as “each rationally-designed meganuclease heterodimer cleaves its intended DNA site”.

B6: CYP (protein)
chain: MNTKYNKEFLLYLAGFVDGDGSIIAAIKPNQDYKFKHQLRLAFQVTQKTQRRWFLDKLVDEIGVGYVYDRGSVSDYQLSEIKPLHNFLTQLQPFLKLKQKQANLVLKIIWRLPSAKESPDKFLEVCTWVDQIAALNDSKTRKTTSETVRAVLDSLSEKKKSSPHHHHHH
With B6 the “cleavage of a linearized DNA substrate with the intended non-palindromic recognition sequence (SEQ ID NO: 35, Nicotiana tabacum CYP82E4 gene) by the 1:1 mixture” value [1] was “each rationally-designed meganuclease heterodimer cleaves its intended DNA site”.

B7: LAM1 (protein)
chain: MNTKYNKEFLLYLAGFVDGDGSIIAQIDPRQCRKFKHELRLRFQVTQKTQRRWFLDKLVDEIGVGYVRDRGSVSDYILSEIKPLHNFLTQLQPFLKLKQKQANLVLKIIWRLPSAKESPDKFLEVCTWVDQIAALNDSKTRKTTSETVRAVLDSLSEKKKSSPHHHHHH
B7 was tested, and the “cleavage of the non-palindromic LAM1/LAM2 hybrid DNA site (SEQ ID NO: 22) by enzymes co-expressed from an operon in E. coli” value (LAM2) was “The co-expressed enzyme mixture was found to cleave all three sites, including the LAM1/LAM2 hybrid site” and the “cleavage of the non-palindromic LAM1/LAM2 hybrid DNA site (SEQ ID NO: 22) by purified enzymes mixed 1:1 and incubated at 42 C for 20 minutes” value (LAM2) was “The 1:1 mixture of LAM1 and LAM2, however, cleaves all three DNA sites”.

B8: MYD1 (protein)
chain: MNTKYNKEFLLYLAGFVDGDGSIIAQIRPRQSYKFKHELELAFQVTQKTQRRWFLDKLVDEIGVGKVRDRGSVSDYELSEIKPLHNFLTQLQPFLKLKQKQANLVLKIIWRLPSAKESPDKFLEVCTWVDQIAALNDSKTRKTTSETVRAVLDSLSEKKKSSPHHHHHH
In the case of B8, the “cleavage of a linearized DNA substrate with the intended non-palindromic recognition sequence (SEQ ID NO: 27, human DM kinase gene) by the 1:1 mixture” value (MYD2) is reported as “each rationally-designed meganuclease heterodimer cleaves its intended DNA site”.

B9: URA1 (protein)
chain: MNTKYNKEFLLYLAGFVDGDGSIIAQIKPNQSCKFKHQLRLAFTVTQKTQRRWFLDKLVDEIGVGYVRDRGSVSDYILSEIKPLHNFLTQLQPFLKLKQKQANLVLKIIWRLPSAKESPDKFLEVCTWVDQIAALNDSKTRKTTSETVRAVLDSLSEKKKSSPHHHHHH
With B9 the “cleavage of a linearized DNA substrate with the intended non-palindromic recognition sequence (SEQ ID NO: 36, Saccharomyces cerevisiae URA3 gene) by the 1:1 mixture” value (URA2) was “each rationally-designed meganuclease heterodimer cleaves its intended DNA site”.

B10: BRP1 (protein)
chain: MNTKYNKEFLLYLAGFVDGDGSIKAQIRPRQCRKFKHELELAFQVTQKTQRRWFLDKLVDEIGVGKVYDRGSVSDYELSEIKPLHNFLTQLQPFLKLKQKQANLVLKIIWRLPSAKESPDKFLEVCTWVDQIAALNDSKTRKTTSETVRAVLDSLSEKKKSSPHHHHHH
For B10, the “cleavage of a linearized DNA substrate with the intended non-palindromic recognition sequence (SEQ ID NO: 33, Arabidopsis BP1 gene) by the 1:1 mixture” value (BRP2) was “each rationally-designed meganuclease heterodimer cleaves its intended DNA site”.

B11: variant of the LAM1 enzyme in which lysines at positions 7, 57, and 96 were changed to glutamic acids (protein)
chain: MNTKYNEEFLLYLAGFVDGDGSIIAQIDPRQCRKFKHELRLRFQVTQKTQRRWFLDELVDEIGVGYVRDRGSVSDYILSEIKPLHNFLTQLQPFLELKQKQANLVLKIIWRLPSAKESPDKFLEVCTWVDQIAALNDSKTRKTTSETVRAVLDSLSEKKKSSPHHHHHH
In the case of B11, the “cleavage of the LAM1/LAM2 hybrid DNA site against the two palindromic sites by co-expressed interface variants” value [2] is reported as “the LAM1/LAM2 hybrid site was found to be cleaved preferentially over the two palindromic sites”.

B12: HGH1 (protein)
chain: MNTKYNKEFLLYLAGFVDGDGSIIAQIDPNQDCKFKHQLRLRFQVTQKTQRRWFLDKLVDEIGVGYVRDRGSVSDYILSEIKPLHNFLTQLQPFLKLKQKQANLVLKIIWRLPSAKESPDKFLEVCTWVDQIAALNDSKTRKTTSETVRAVLDSLSEKKKSSPHHHHHH
With B12 the “cleavage of a linearized DNA substrate with the intended non-palindromic recognition sequence (SEQ ID NO: 24, Human Growth Hormone promoter) by the 1:1 mixture” value (HGH2) was “each rationally-designed meganuclease heterodimer cleaves its intended DNA site”.

From patent publication US20110033935
